Laboratory results as given in the nanobody polyreactivity screen of Harvey et al. (2022).

Experiment: yeast display, Sf9 membrane polyspecificity reagent, FACS + sequencing; frameworks hold sequencing errors
Procedure, shortened: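 Sorting gates, low and high (top ~1%), were placed on anti-HA fluorescence to track expression and on streptavidin fluorescence to track reagent binding. A clone's polyreactivity label is taken from the gate it came out of. The reagent was 10% biotinylated, detergent-solubilized Sf9 membrane, applied for 1 hour at 4 °C to galactose-induced yeast display cells.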

With “QFQLVESGGGLVEAGGSLRLSCAASGFTFSWYVMGWYRPAPGKERELVATITNRGGSTYYADSVKGRFTISRDNAKNTVYIQMKSQKPEDTAVYYCAARKKGSRVGYDYWGEGTQVTVSS” as the sequence, how does the “polyreactivity (PSR sort gate)” value read?
The value was “high polyreactivity”.

For “QFQLVESGGGLVQAGASLRLSCAASGSISKSYAMGWYRQAPGKERELVAAISWRGGSTYADSVKGRFTISRDNAKNTVYLQMNCLKPEDTAVYYCAATNYGTFWGGQSERYDYWGQGTQVTVSS”, which “polyreactivity (PSR sort gate)” value is on record?
The value was “low polyreactivity”.

With “QFQLVESGGGLVQAGASLRLSCAASVSTFRPYAMGWYRQAPGKERELVAAISSGDSTYYADSVKGRFTISRDNGKNTVYLQMNSLIPDDTAVYYCAKRNYWHRGGGYWGLGTQVTVSS” as the sequence, how does the “polyreactivity (PSR sort gate)” value read?
The value was “high polyreactivity”.

For “QFQLVESGGGLVQAGCSLRLSCAASGRTVGSNDMGWYRQAPRKEMDLFAAIPTTTASTNYADSVKGRFTISRDNAKNTVYFQMNSLKPEDNAVYYCNKQYLWYYWDGTDAEDYWGQGTQVTVSS”, which “polyreactivity (PSR sort gate)” value is on record?
The value was “low polyreactivity”.

With “QFQLVESGGGLVQAGGILRLSCAASGLIFQAYTMGWYRQAPGKEREFVAAISKSGGSTYYADSVKGRFTISRDNAKNTVYLQMNSLKPEDTAVYYCAAVDWRRPGYDYWGQGTQVTVSS” as the sequence, how does the “polyreactivity (PSR sort gate)” value read?
Its value is “high polyreactivity”.

Which “polyreactivity (PSR sort gate)” value does the source give for “QFQLVESGGGLVQAGGILRLSCAASGRIFKYYAMGWYRQEPGKERELVAAISRGGSTYYADSVKGRFTISRDNAKNTVYLQMNSLKPEDSAVYYCNAYRHGYVAYRRYDYWGQGTQVTVSS” here?
Its value is “high polyreactivity”.

Which “polyreactivity (PSR sort gate)” value does the source give for “QFQLVESGGGLVQAGGRLRLSCAASGSTLRRYAMGWYRQAPGKERELVAAITYRSGSTYYADSVKGRFTISRDNAKNTVYLEMNSLKPVDTAVYYCAKVGYVSKYWFAGDYWGQGTQVTVSS” here?
The value was “high polyreactivity”.

Which “polyreactivity (PSR sort gate)” value does the source give for “QFQLVESGGGLVQAGGSLRLSCAASGFIFAVNAMGWYRQAPGKERELVAAISSSGTTNYADSVKGRFTISRDNAKNTVYLQMNSLKPEDTAVYYCNKRWRDKYPQYDYWGQGTQVTVSS” here?
The value was “low polyreactivity”.

With “QFQLVESGGGLVQAGGSLRLSCAASGFIFKPYTMGWYRQAPGKERELVATITFSGGSTYYADSVKGRFTNSRDNAKNTVYLQMNSLKPEDTAVYYCAAPRFYRGYAIYDYWGQGTQVTVSS” as the sequence, how does the “polyreactivity (PSR sort gate)” value read?
Its value is “low polyreactivity”.

With “QFQLVESGGGLVQAGGSLRLSCAASGFNFQYNAIGWYRQAPGKERELVAAITWTGTSTYADSVKGRFTISRDYAKNTVYLQMNSLKPEDTSVYYCAARYYAPRWFRYDYWGQGTQVTVSS” as the sequence, how does the “polyreactivity (PSR sort gate)” value read?
The value was “low polyreactivity”.

With “QFQLVESGGGLVQAGGSLRLSCAASGFTFPGYALGWSTQAPGKERELVAAINSSGGRTYYADSVKWRFTISRDNAKYTVYLQMNSLKPEDTEVYYCGATRWYIRARYNYWGHGTQVTVSS” as the sequence, how does the “polyreactivity (PSR sort gate)” value read?
Its value is “high polyreactivity”.

With “QFQLVESGGGLVQAGGSLRLSCAASGFTFYPYAMGWSRQAPGKERELVAAITRSGTSTFYADSVKGRFTISRDNAKNTVYLQMNSLKPEDTAVYYCAKGYFFVGTDWESYYWGQGTQVTVSS” as the sequence, how does the “polyreactivity (PSR sort gate)” value read?
The value was “low polyreactivity”.

Which “polyreactivity (PSR sort gate)” value does the source give for “QFQLVESGGGLVQAGGSLRLSCAASGFTYYFYAMGWYRPAPGKERELVAAISRGGSTTYADSVKGRFTISRDNAKNTVYLQMYSLKPEDTAVYYCGADDYYDPHYEYDFWGQGTQVTVSS” here?
The value was “low polyreactivity”.

For “QFQLVESGGGLVQAGGSLRLSCAASGIIFGRYTMGWYRDAPGKERELVAAITSSGITYYADSVKGRFTISRDNAKNTVYLQMNSLKPEDTAVYYCAADVGYWGRSRGYPSDDYDYWGQGTQVTVSS”, which “polyreactivity (PSR sort gate)” value is on record?
Its value is “low polyreactivity”.

Which “polyreactivity (PSR sort gate)” value does the source give for “QFQLVESGGGLVQAGGSLRLSCAASGITFGTNAMGWYRQATGKERELVARISSSDASTYYADSVKGRFTISRDNGKNTVYLQMNSLKPEDTAVYYCAADIYVTGYFRYDYWGQGTQVTVSS” here?
Its value is “low polyreactivity”.

For “QFQLVESGGGLVQAGGSLRLSCAASGITFTFNARGWYRQAPGKERELVAAITWSGGSPFYADSVKGRFTISRDNAKNTVYLQLNSLNPEDTAVYYCARDTELYVRWLDYWGQGTQVTVSS”, which “polyreactivity (PSR sort gate)” value is on record?
Its value is “low polyreactivity”.

With “QFQLVESGGGLVQAGGSLRLSCAASGNIFGYYALGWYRQAPGKEREFVAAISGGDSTNYADSVKGRFTNSRDNAKNTVYLQMNSLQPEDTAVYYCARDYWSGASGGYPYDYWGQGTQVTVSS” as the sequence, how does the “polyreactivity (PSR sort gate)” value read?
The value was “low polyreactivity”.

With “QFQLVESGGGLVQAGGSLRLSCAASGNTFTKYAMGWYRQAPGKDRELLAGITRGGSTNYADSVKGRFTISRDNAKNTVYFQMNSLKPEDTAVYYCNARPVYGSRFYSAVRMEYWGQGTQVTVSS” as the sequence, how does the “polyreactivity (PSR sort gate)” value read?
The value was “low polyreactivity”.

Which “polyreactivity (PSR sort gate)” value does the source give for “QFQLVESGGGLVQAGGSLRLSCAASGQILPYYAMGWYRQAPGKERELVAAISRTGGRTSYADSVNGRLTISRDNAKNTFYLQMNSLSPEDTAVYYCAAVGQSGGRRYDYWGQGTQVTVSS” here?
The value was “high polyreactivity”.

For “QFQLVESGGGLVQAGGSLRLSCAASGRIFRVNAKGWYRPAPGKERELVAGITQGDGSTYYADSVKGRFTISRDNAKNTVYLQMNSLKPEDTAVYYCAASTGPDRQFDSWGQGTQVTVSS”, which “polyreactivity (PSR sort gate)” value is on record?
Its value is “low polyreactivity”.

Which “polyreactivity (PSR sort gate)” value does the source give for “QFQLVESGGGLVQAGGSLRLSCAASGRIFYLYAMGWYRQAPGKERELVAGITSGGRTNYADSVKGRFTISRDNGKNTVFLQMNSLKPEDSAVYYCAAGSLRYKYDYWGQGTQVTVSS” here?
The value was “high polyreactivity”.

Which “polyreactivity (PSR sort gate)” value does the source give for “QFQLVESGGGLVQAGGSLRLSCAASGRTFSWSAMGWYRQAPGKERELVAAISASGGRTYYADSVKGRFTISRDNANNSVYLQMNSLKPEDTAVYYCAKVVKKIEFDYWGQGTEVTVSS” here?
The value was “high polyreactivity”.

Which “polyreactivity (PSR sort gate)” value does the source give for “QFQLVESGGGLVQAGGSLRLSCAASGRTFWSNAMVWYRQAPGKERELVAAISGGARTNYADSVKGRFTISRDNAKNTVYLQMNSLKPEDTEVYFCAATPRYWQSRYDYWGKGTQVTVSS” here?
The value was “high polyreactivity”.

Which “polyreactivity (PSR sort gate)” value does the source give for “QFQLVESGGGLVQAGGSLRLSCAASGSIFEPYAMGWYRQAPGKETELVATAITYSGGSTYYADSVKGRFTISRDNAKNTVYLQMNSLKPEDTAVYYCAADDWGDGVYKLDYWGQGTQVTVSS” here?
Its value is “low polyreactivity”.

Which “polyreactivity (PSR sort gate)” value does the source give for “QFQLVESGGGLVQAGGSLRLSCAASGSIFGVYVMGWSRQGAGKERELVAAITRGASTNYADSVKGRFTISRDNAKNTVYLQMNSLKPEDTAVYYCAAESGNRYEYWGQGTQVTVSS” here?
The value was “low polyreactivity”.

For “QFQLVESGGGLVQAGGSLRLSCAASGSIFIPYAMGWYRQAPGKEREFVATITFGAASTYYADSVKGRFTISRDNAKNTVYLQMNSLKREDTAVYYCAAEWRRYEYADSWEYDYWGQGTQVTVSS”, which “polyreactivity (PSR sort gate)” value is on record?
Its value is “low polyreactivity”.

Which “polyreactivity (PSR sort gate)” value does the source give for “QFQLVESGGGLVQAGGSLRLSCAASGSIIWWNAMGWYRQAPGKERELVASIGDSTYYADSVKGRFTISRDNAKNTVYLQMNSLKPEDTAVYYCNAEVLNYLVFGYQLGYDYWGQGTQVTVSS” here?
Its value is “low polyreactivity”.

Which “polyreactivity (PSR sort gate)” value does the source give for “QFQLVESGGGLVQAGGSLRLSCAASGSILDGNTMGWYRQAPGKERELVDAISSLATSTYYADSVKGRFTISRDNAKNTVYLQINSLKPEDTAVYYCAALVRRKRTTSGDDYWGQGTQVTVSS” here?
The value was “high polyreactivity”.

Which “polyreactivity (PSR sort gate)” value does the source give for “QFQLVESGGGLVQAGGSLRLSCAASGSIYRLNTMGWYRQAPGKERELVAAMSRRGGSTYYADSVKGRFTISRDNAKNTVYIQMNSLKPEDTAVYYCSADVTSFRHAPGYEYWGQGTQVTVSS” here?
Its value is “high polyreactivity”.

With “QFQLVESGGGLVQAGGSLRLSCAASGSTFIGYAMGWYRQAPGKERELVAAITGGGRTNYADSVKGRFTISRDNAKNTVYLQMNSLKPEDTAVYYCAARGVSRGYAKPYYSRGDYWGQGTQVTVSS” as the sequence, how does the “polyreactivity (PSR sort gate)” value read?
Its value is “low polyreactivity”.

With “QFQLVESGGGLVQAGGSLRLSCAASGSTFIYNTMGWYRQAPGKERELVATIRRSGGITYYADSVKGRFTISRDNAKNTVYLQMNSLKPEDTAVYYCNAKPNRYSAKIVQYDSWGQGTQVTVSS” as the sequence, how does the “polyreactivity (PSR sort gate)” value read?
The value was “low polyreactivity”.

With “QFQLVESGGGLVQAGGSLRLSCAASGSTFKYYAKGWYRQAPGKERELVAAISARTGSTYYADSVKGRFTISRDNEKNTVYLQMNILKPEDTAVYYCNKLTWRGEVDYWGQGTQVTESS” as the sequence, how does the “polyreactivity (PSR sort gate)” value read?
Its value is “high polyreactivity”.

For “QFQLVESGGGLVQAGGSLRLSCAASGSTFRGYTMGWYRQAPGKERELVAAIRSTTGRTYYADSVKGRFTISRENAKNTVYLQMNSLKPEDTAVYYCNKAYPREYYYWGQGTQVTVSS”, which “polyreactivity (PSR sort gate)” value is on record?
Its value is “high polyreactivity”.

With “QFQLVESGGGLVQAGGSLRLSCAASGSTFYTTDMGWYRQAPGKERELVASITSAGNTNYADSVKGRFTISRDNAKNSVYLQMNSLKPEDTAVYYYYYYQYDYWGQGTQVTVSS” as the sequence, how does the “polyreactivity (PSR sort gate)” value read?
The value was “low polyreactivity”.

Which “polyreactivity (PSR sort gate)” value does the source give for “QFQLVESGGGLVQAGGSLRLSCAASGSTSYRNAMGWYRQAPGKEREFVAAISWSGGSTYYADSVKGRFTISRDNAKNTVYLQMNSLKPEDTADYYSNADAYGTPEFTSYAVRYDYWGQGTQVTVSS” here?
Its value is “low polyreactivity”.

For “QFQLVESGGGLVQAGGSLRLSCAASGYIFVRYTMGWYRQAPGKERELVAAISWGGGSTYYADSVKGLFTISRDNAKNTVYLQMNSLKPEDTAVYYCNNRYIQLYDYWGQGTQVTVSS”, which “polyreactivity (PSR sort gate)” value is on record?
Its value is “low polyreactivity”.

For “QFQLVESGGGLVQAGGSLRLSCAASGYIFYGYVMGWYRQAPGKERELVAGITYSGGGGTHYADSVNGRFTISRDNAKNTVYLQMNSLKPEDTAVYYCAKADPQLNRTYYSYGMDYWGHGTQVTVSS”, which “polyreactivity (PSR sort gate)” value is on record?
Its value is “low polyreactivity”.

For “QFQLVESGGGLVQAGGSLRLSCAASGYTFRYYSMGWYRQATGKERELVAAISRSGGSTYYADSVKGRFTISRDYAKNTVYLQMYSLKPEDTAVYYCAADYSYRTRGNRYRLDYWGQGTQVTVSS”, which “polyreactivity (PSR sort gate)” value is on record?
Its value is “high polyreactivity”.

With “QFQLVESGGGLVQAGGSLRLSCAASGYTLEYNAMGWYRQAPGKDRELGARIRWSGSSTYYADSVKGRFTISRDNAKNTVYLQMNSLKPEDTAVYYCATRYRRWKYDYWGQGTQVTVSS” as the sequence, how does the “polyreactivity (PSR sort gate)” value read?
Its value is “high polyreactivity”.

For “QFQLVESGGGLVQAGGSLRLSCAASRYTFTLYAMGCYRQAPGKVRELVAAISWSSGSTYYADSVKGRFTISRDNEKNTVYLQMNSLKPEDTAVYYCNARRFGLTQYYYWGQGTQVTVSS”, which “polyreactivity (PSR sort gate)” value is on record?
The value was “low polyreactivity”.

Which “polyreactivity (PSR sort gate)” value does the source give for “QFQLVESGGGLVQAGGSLRLSCAATGRIFYKYAMGWYRQAPRKETELVAAISSSGGRTYYADSVKGRFTISRDNAKNTVYLQMNSLKPEDSAVYYCGARIHYPSLPYDYWGQGTQVTVSS” here?
The value was “low polyreactivity”.

With “QFQLVESGGGLVQAGGSLRLSCAPSGGTFGSNAMGWYRQAPGKERELVAAISTTGGTTYYADSVKGRFTISRDNAKNTVYLQMNSLKPEDTAVYYCAKDGYVYGDWYTYAYVYWGQGTQVTVSS” as the sequence, how does the “polyreactivity (PSR sort gate)” value read?
Its value is “low polyreactivity”.

Which “polyreactivity (PSR sort gate)” value does the source give for “QFQLVESGGGLVQAGGSLRLSCPAYGSNLSRYAMGWYRQSPGKVRELVATITRRGGSTFYADSVKGRFTISRDNAKNTVYLQMNSLKPDDTADYYCAVGRLFWGQGTQVTVSS” here?
The value was “low polyreactivity”.
